Source: the supplement of paper PMC9112550, “Optimization of the antimicrobial peptide Bac7 by deep mutational scanning” (BMC Biology, 2022)

Tested on: Escherichia coli TOP10
Test: shrunken log2 fold change of peptide-encoding DNA abundance (4.5 h post-induction vs induction); higher = less antimicrobial activity (less host growth inhibition)
Conditions: time post-induction: 4.5 h; library: site-saturation at positions 5, 18, 19, 20
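Also: peptides expressed intracellularly from a pBAD plasmid library in pooled LB shake-flask culture, induced with 0.3% L-arabinose, DNA abundance read by NGS, three biological replicates, DESeq2 with apeglm shrinkage.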

Sequence	shrunken log2 fold change
RRIRQRPPRLPRPRPRPQYGPRP	-0.0763
RRIRQRPPRLPRPRPRPREDPRP	0.242
RRIRQRPPRLPRPRPRPREVPRP	4.11
RRIRQRPPRLPRPRPRPREYPRP	-0.0403
RRIRQRPPRLPRPRPRPRGRPRP	0.256
RRIRQRPPRLPRPRPRPRGTPRP	0.313
RRIRQRPPRLPRPRPRPRHLPRP	-0.33
RRIRQRPPRLPRPRPRPRHYPRP	-0.191
RRIRQRPPRLPRPRPRPRIVPRP	0.01
RRIRQRPPRLPRPRPRPRKSPRP	-0.172
RRIRQRPPRLPRPRPRPRLTPRP	0.178
RRIRQRPPRLPRPRPRPRNIPRP	-0.0833
RRIRQRPPRLPRPRPRPRNKPRP	-0.68
RRIRQRPPRLPRPRPRPRPHPRP	0.483
RRIRQRPPRLPRPRPRPRPTPRP	0.554
RRIRQRPPRLPRPRPRPRPVPRP	0.336
RRIRQRPPRLPRPRPRPRRKPRP	0.192
RRIRQRPPRLPRPRPRPRSDPRP	-0.208
RRIRQRPPRLPRPRPRPRSSPRP	0.0377
RRIRQRPPRLPRPRPRPRSVPRP	0.235
RRIRQRPPRLPRPRPRPRTTPRP	0.218
RRIRQRPPRLPRPRPRPRVFPRP	-0.0984
RRIRQRPPRLPRPRPRPRVHPRP	-0.163
RRIRQRPPRLPRPRPRPRVIPRP	0.113
RRIRQRPPRLPRPRPRPRVQPRP	0.527

Sequence	shrunken log2 fold change
RRIRQRPPRLPRPRPRPRWAPRP	0.144
RRIRQRPPRLPRPRPRPRWLPRP	0.453
RRIRQRPPRLPRPRPRPSADPRP	0.354
RRIRQRPPRLPRPRPRPSAGPRP	0.0717
RRIRQRPPRLPRPRPRPSDEPRP	-0.275
RRIRQRPPRLPRPRPRPSEHPRP	-0.195
RRIRQRPPRLPRPRPRPSFEPRP	-0.213
RRIRQRPPRLPRPRPRPSFHPRP	-0.351
RRIRQRPPRLPRPRPRPSFWPRP	0.0712
RRIRQRPPRLPRPRPRPSGTPRP	0.0732
RRIRQRPPRLPRPRPRPSGYPRP	-0.0295
RRIRQRPPRLPRPRPRPSHHPRP	0.0184
RRIRQRPPRLPRPRPRPSHKPRP	-0.0927
RRIRQRPPRLPRPRPRPSILPRP	-0.177
RRIRQRPPRLPRPRPRPSINPRP	-0.806
RRIRQRPPRLPRPRPRPSKPPRP	-0.231
RRIRQRPPRLPRPRPRPSLHPRP	-0.64
RRIRQRPPRLPRPRPRPSLYPRP	-0.233
RRIRQRPPRLPRPRPRPSMDPRP	-0.271
RRIRQRPPRLPRPRPRPSMGPRP	-0.163
RRIRQRPPRLPRPRPRPSNPPRP	0.0169
RRIRQRPPRLPRPRPRPSPLPRP	0.0509
RRIRQRPPRLPRPRPRPSQMPRP	-0.0442
RRIRQRPPRLPRPRPRPSRKPRP	0.111
RRIRQRPPRLPRPRPRPSRLPRP	0.101

Sequence	shrunken log2 fold change
RRIRQRPPRLPRPRPRPSRTPRP	-0.29
RRIRQRPPRLPRPRPRPSSNPRP	-0.222
RRIRQRPPRLPRPRPRPSTGPRP	-0.0811
RRIRQRPPRLPRPRPRPSTIPRP	-0.0567
RRIRQRPPRLPRPRPRPSVCPRP	-0.14
RRIRQRPPRLPRPRPRPSVGPRP	0.119
RRIRQRPPRLPRPRPRPSVLPRP	-0.0352
RRIRQRPPRLPRPRPRPSVTPRP	-0.0462
RRIRQRPPRLPRPRPRPSWTPRP	-0.15
RRIRQRPPRLPRPRPRPTADPRP	0.392
RRIRQRPPRLPRPRPRPTAMPRP	0.0174
RRIRQRPPRLPRPRPRPTAQPRP	0.0588
RRIRQRPPRLPRPRPRPTAYPRP	0.14
RRIRQRPPRLPRPRPRPTCFPRP	0.132
RRIRQRPPRLPRPRPRPTCGPRP	0.285
RRIRQRPPRLPRPRPRPTDDPRP	-0.0703
RRIRQRPPRLPRPRPRPTECPRP	0.0119
RRIRQRPPRLPRPRPRPTEGPRP	-0.0332
RRIRQRPPRLPRPRPRPTEMPRP	-0.149
RRIRQRPPRLPRPRPRPTFQPRP	0.00826
RRIRQRPPRLPRPRPRPTHWPRP	0.427
RRIRQRPPRLPRPRPRPTIEPRP	0.0419
RRIRQRPPRLPRPRPRPTIFPRP	-0.0347
RRIRQRPPRLPRPRPRPTIRPRP	-0.219
RRIRQRPPRLPRPRPRPTKRPRP	0.254

Sequence	shrunken log2 fold change
RRIRQRPPRLPRPRPRPTLRPRP	-0.0246
RRIRQRPPRLPRPRPRPTLVPRP	0.186
RRIRQRPPRLPRPRPRPTMEPRP	-0.0535
RRIRQRPPRLPRPRPRPTMSPRP	0.0272
RRIRQRPPRLPRPRPRPTNNPRP	-0.547
RRIRQRPPRLPRPRPRPTNVPRP	-0.302
RRIRQRPPRLPRPRPRPTPTPRP	0.336
RRIRQRPPRLPRPRPRPTPWPRP	0.619
RRIRQRPPRLPRPRPRPTQCPRP	-0.343
RRIRQRPPRLPRPRPRPTQGPRP	2.34
RRIRQRPPRLPRPRPRPTQLPRP	0.375
RRIRQRPPRLPRPRPRPTQTPRP	-0.00783
RRIRQRPPRLPRPRPRPTSVPRP	0.0377
RRIRQRPPRLPRPRPRPTTGPRP	0.0143
RRIRQRPPRLPRPRPRPTTLPRP	-0.196
RRIRQRPPRLPRPRPRPTTYPRP	-0.282
RRIRQRPPRLPRPRPRPTYAPRP	-0.0832
RRIRQRPPRLPRPRPRPTYNPRP	-0.591
RRIRQRPPRLPRPRPRPTYRPRP	0.06
RRIRQRPPRLPRPRPRPVCHPRP	-0.13
RRIRQRPPRLPRPRPRPVEHPRP	-0.00992
RRIRQRPPRLPRPRPRPVFHPRP	-0.107
RRIRQRPPRLPRPRPRPVGFPRP	0.00249
RRIRQRPPRLPRPRPRPVGVPRP	0.475
RRIRQRPPRLPRPRPRPVHNPRP	-0.121

Sequence	shrunken log2 fold change
RRIRQRPPRLPRPRPRPVKEPRP	-0.0231
RRIRQRPPRLPRPRPRPVKKPRP	-0.0152
RRIRQRPPRLPRPRPRPVLWPRP	0.193
RRIRQRPPRLPRPRPRPVMCPRP	-0.119
RRIRQRPPRLPRPRPRPVMVPRP	0.11
RRIRQRPPRLPRPRPRPVNAPRP	0.00432
RRIRQRPPRLPRPRPRPVNQPRP	-0.0686
RRIRQRPPRLPRPRPRPVNRPRP	0.00086
RRIRQRPPRLPRPRPRPVPTPRP	0.0766
RRIRQRPPRLPRPRPRPVREPRP	-0.00762
RRIRQRPPRLPRPRPRPVSAPRP	0.104
RRIRQRPPRLPRPRPRPVSRPRP	-0.00586
RRIRQRPPRLPRPRPRPVSYPRP	0.0822
RRIRQRPPRLPRPRPRPVTFPRP	-0.0496
RRIRQRPPRLPRPRPRPVTPPRP	-0.00477
RRIRQRPPRLPRPRPRPVTVPRP	0.153
RRIRQRPPRLPRPRPRPVWAPRP	-0.468
RRIRQRPPRLPRPRPRPVWYPRP	-0.254
RRIRQRPPRLPRPRPRPWCEPRP	-0.105
RRIRQRPPRLPRPRPRPWDGPRP	0.199
RRIRQRPPRLPRPRPRPWDVPRP	-0.0187
RRIRQRPPRLPRPRPRPWEFPRP	-0.123
RRIRQRPPRLPRPRPRPWGFPRP	0.0223
RRIRQRPPRLPRPRPRPWHFPRP	-0.0375
RRIRQRPPRLPRPRPRPWICPRP	0.117

Sequence	shrunken log2 fold change
RRIRQRPPRLPRPRPRPWIKPRP	-0.0062
RRIRQRPPRLPRPRPRPWITPRP	-0.0754
RRIRQRPPRLPRPRPRPWKDPRP	-0.0211
RRIRQRPPRLPRPRPRPWKLPRP	-0.09
RRIRQRPPRLPRPRPRPWKVPRP	-0.00992
RRIRQRPPRLPRPRPRPWLIPRP	-0.289
RRIRQRPPRLPRPRPRPWLPPRP	-0.181
RRIRQRPPRLPRPRPRPWNDPRP	-0.373
RRIRQRPPRLPRPRPRPWPIPRP	-0.152
RRIRQRPPRLPRPRPRPWQNPRP	0.0546
RRIRQRPPRLPRPRPRPWRCPRP	-0.149
RRIRQRPPRLPRPRPRPWRPPRP	0.143
RRIRQRPPRLPRPRPRPWSTPRP	-0.0264
RRIRQRPPRLPRPRPRPWTPPRP	-0.061
RRIRQRPPRLPRPRPRPYALPRP	-0.0202
RRIRQRPPRLPRPRPRPYCTPRP	-0.863
RRIRQRPPRLPRPRPRPYDSPRP	-0.00804
RRIRQRPPRLPRPRPRPYEHPRP	0.00367
RRIRQRPPRLPRPRPRPYGFPRP	0.0147
RRIRQRPPRLPRPRPRPYHPPRP	-0.531
RRIRQRPPRLPRPRPRPYIMPRP	-1.64
RRIRQRPPRLPRPRPRPYIQPRP	-0.32
RRIRQRPPRLPRPRPRPYKCPRP	-0.334
RRIRQRPPRLPRPRPRPYKDPRP	-0.0988
RRIRQRPPRLPRPRPRPYKFPRP	-0.0369
